Test results taken from patent US20070197442A1, “Methods for the Treatment of Macular Degeneration and Related Eye Conditions” (priority 2006, published 2007).

Experiments:
LCAT = target: T1, LCAT (Homo sapiens, UniProt P04180); assay: in vitro LCAT activation; type: biochemical; details: in the presence of lipids; % of the activity of native apoA-I
T1 sequence (P04180 25-440): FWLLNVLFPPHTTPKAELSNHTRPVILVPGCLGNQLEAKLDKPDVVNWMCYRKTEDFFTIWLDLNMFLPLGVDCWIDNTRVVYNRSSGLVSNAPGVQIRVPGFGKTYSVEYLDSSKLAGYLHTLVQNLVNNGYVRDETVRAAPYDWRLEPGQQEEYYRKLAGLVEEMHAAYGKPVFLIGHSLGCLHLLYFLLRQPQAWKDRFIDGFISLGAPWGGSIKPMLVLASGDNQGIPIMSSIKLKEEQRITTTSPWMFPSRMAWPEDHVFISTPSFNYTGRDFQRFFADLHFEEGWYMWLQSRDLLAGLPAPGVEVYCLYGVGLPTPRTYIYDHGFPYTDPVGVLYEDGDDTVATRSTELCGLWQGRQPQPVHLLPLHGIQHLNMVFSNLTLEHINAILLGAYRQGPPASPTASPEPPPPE
From the text: ESP24218 (SEQ ID NO:1), the peptide component of the peptide/phospholipid complex, is a 22 amino acid peptide having a helical structure and amphipathic properties designed based on the helical repeats of apoA-I. In the presence of lipids, this peptide approaches 100% of the activity of native apoA-I in in vitro LCAT activation. The peptide can be prepared by chemical synthesis using any technique known to those of skill in the art. The peptide can be prepared by the synthetic techniques described in U.S. Pat. No. 6,004,925, incorporated herein by reference in its entirety for all purposes. Typically, ESP24218 (SEQ ID NO:1) is produced by a stepwise chemical synthesis on a solid support. In preferable embodiments, all amino acids in the peptide are natural L-α-amino acids in configuration. Generally, the amino and carboxyl termini of the peptide are free. The amino acid sequence of ESP24218 (SEQ ID NO:1) is shown in FIG. 1, which is as follows: H-[…]OH. The phospholipid can be obtained from any source known to those of skill in the art. […]

[1] = system: apo E expression in HepG2 cells; details: cited from earlier work

Substance	activity in in vitro LCAT activation relative to native apoA-I (LCAT)	increase of expression of apo E [1]
H-Pro-Val-Leu-Asp-Leu-Phe-Arg-Glu-Leu-Leu-Asn-Glu-Leu-Leu-Glu-Ala-Leu-Lys-Gln-Lys-Leu-Lys-OH [ESP24218]	~100%	–
Thyroid hormone	–	three
